The subject of series [1] is T1, APG07433.1 (Bacillus sp.).
T1 sequence: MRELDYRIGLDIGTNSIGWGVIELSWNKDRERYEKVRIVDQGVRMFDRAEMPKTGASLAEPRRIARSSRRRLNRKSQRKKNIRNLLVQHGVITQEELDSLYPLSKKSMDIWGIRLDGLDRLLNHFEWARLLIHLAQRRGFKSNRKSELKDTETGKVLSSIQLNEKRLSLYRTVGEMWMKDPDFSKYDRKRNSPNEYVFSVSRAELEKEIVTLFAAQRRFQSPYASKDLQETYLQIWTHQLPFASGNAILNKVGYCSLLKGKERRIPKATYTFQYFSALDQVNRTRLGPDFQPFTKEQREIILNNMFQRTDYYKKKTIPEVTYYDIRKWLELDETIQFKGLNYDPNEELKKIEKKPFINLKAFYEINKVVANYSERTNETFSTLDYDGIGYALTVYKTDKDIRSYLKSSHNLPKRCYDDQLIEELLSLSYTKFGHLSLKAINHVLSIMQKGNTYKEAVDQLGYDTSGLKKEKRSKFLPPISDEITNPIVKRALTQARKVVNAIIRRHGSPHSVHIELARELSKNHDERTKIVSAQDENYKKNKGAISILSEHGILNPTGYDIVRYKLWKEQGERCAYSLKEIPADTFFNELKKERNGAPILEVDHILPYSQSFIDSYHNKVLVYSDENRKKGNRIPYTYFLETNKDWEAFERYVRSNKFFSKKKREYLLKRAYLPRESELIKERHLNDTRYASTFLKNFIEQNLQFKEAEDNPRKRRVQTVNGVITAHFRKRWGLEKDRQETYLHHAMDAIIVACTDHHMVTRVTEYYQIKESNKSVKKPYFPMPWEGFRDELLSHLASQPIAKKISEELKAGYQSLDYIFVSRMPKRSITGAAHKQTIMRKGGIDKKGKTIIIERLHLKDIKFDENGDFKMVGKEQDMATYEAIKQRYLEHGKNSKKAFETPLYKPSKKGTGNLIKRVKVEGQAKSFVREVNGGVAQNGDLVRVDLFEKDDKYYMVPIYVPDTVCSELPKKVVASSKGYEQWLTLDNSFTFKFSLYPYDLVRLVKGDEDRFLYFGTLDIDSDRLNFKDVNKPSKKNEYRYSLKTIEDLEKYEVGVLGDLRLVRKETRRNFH
The series can be described thus: cleavage_in_vitro. The settings on record: PAM NNNNCC; NTS cut 4, TS cut 3, 1 nt 5' overhang (Table 3).

In series [2] the target is T2, APG07433.1 (Bacillus sp.).
T2 chain: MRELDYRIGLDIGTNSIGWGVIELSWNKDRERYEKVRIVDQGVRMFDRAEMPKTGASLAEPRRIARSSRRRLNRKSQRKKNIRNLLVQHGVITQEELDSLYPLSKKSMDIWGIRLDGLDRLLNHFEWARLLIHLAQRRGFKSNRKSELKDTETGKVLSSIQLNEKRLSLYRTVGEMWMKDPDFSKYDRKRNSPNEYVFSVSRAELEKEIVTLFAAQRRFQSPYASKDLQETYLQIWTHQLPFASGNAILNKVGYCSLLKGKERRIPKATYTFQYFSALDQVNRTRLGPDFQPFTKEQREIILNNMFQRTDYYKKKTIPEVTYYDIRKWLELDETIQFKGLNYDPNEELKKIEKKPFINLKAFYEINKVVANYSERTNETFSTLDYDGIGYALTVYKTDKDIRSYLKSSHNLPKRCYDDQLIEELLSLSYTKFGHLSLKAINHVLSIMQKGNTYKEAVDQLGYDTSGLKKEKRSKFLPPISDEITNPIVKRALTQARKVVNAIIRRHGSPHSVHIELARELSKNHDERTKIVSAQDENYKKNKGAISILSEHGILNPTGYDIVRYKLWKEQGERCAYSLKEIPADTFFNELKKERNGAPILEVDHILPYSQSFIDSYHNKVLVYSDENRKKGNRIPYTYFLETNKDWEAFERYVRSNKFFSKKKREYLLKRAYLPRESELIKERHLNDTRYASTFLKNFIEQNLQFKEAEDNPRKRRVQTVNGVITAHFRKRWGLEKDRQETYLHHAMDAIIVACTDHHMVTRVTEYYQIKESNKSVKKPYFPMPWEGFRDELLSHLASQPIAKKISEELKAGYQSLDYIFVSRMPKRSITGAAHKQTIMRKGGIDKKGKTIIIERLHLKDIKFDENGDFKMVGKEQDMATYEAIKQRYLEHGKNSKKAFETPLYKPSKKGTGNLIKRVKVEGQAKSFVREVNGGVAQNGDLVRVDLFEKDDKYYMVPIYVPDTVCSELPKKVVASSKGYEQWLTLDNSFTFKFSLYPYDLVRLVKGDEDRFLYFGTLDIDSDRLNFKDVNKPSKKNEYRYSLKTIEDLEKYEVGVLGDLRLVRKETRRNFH
The series can be described thus: cell_activity; HEK293T; PAM NNNNCC. The settings on record: tags: human cells: N-term SV40 NLS and 3xFLAG, C-term nucleoplasmin NLS. As to the method: The constructs described above were introduced into mammalian cells. One day prior to transfection, 1×10⁵ HEK293T cells/well (Sigma) were plated in 24-well dishes in Dulbecco's modified Eagle medium (DMEM) plus 10% (vol/vol) fetal bovine serum (Gibco) and 1% Penicillin-Streptomycin (Gibco). The next day when the cells were at 50-60% confluency, 500 ng of a RGN expression plasmid plus 500 ng of a single gRNA expression plasmid were co-transfected using […] of Lipofectamine 3000 (Thermo Scientific) per well, following the manufacturer's instructions. After 48 hours of growth, total genomic DNA was harvested using a genomic DNA isolation kit (Machery-Nagel) according to the manufacturer's instructions.
Additionally, products from PCR #2 containing Illumina overhang sequences underwent library preparation following the Illumina 16S Metagenomic Sequencing Library protocol. Deep sequencing was performed on an Illumina Mi-Seq platform by a service provider (MOGene). Typically 200,000 of 250 bp paired-end reads (2×100,000 reads) are generated per amplicon. The reads were analyzed using CRISPResso (Pinello, et al. 2016 Nature Biotech, 34:695-697) to calculate the rates of editing. Output alignments were hand-curated to confirm insertion and deletion sites as well as identify microhomology sites at the recombination sites. All experiments were performed in human cells. The “target sequence” is the targeted sequence within the gene target. For each target sequence, the guide RNA comprised the complementary RNA target sequence and the appropriate sgRNA depending on the RGN used.

“GAGCGGACAGCAGCUUCCUAUAUCUCGUACNNNNNNNNNNNNNNNNNNNNNNNNNGUCAUAGUUCCAUUAAAGCCAAAAGUGGCUUUGAUGUUUCUAUGAUAAGGGUUUCGACCCGUGGCGUCGGGGAUCGCCUGCCCAUUGAAAUGGGCUUCUCCCCAUUUAUU / GAGCGGACAGCAGCTTCCTATATCTCGTAC / GTACGAGATATAGGAAGCTGCTGTCCGCTC [Sequence 1 sgRNA for APG07433.1 ; Sequence 1 target]”: the activity in series [1] turned out to be 86 % cleaved.

B1: Guide 173 ; HPRT1 target of guide 173 (ssRNA ; dsDNA)
RNA: CUUCUAUAGCCUCCUUCCCCGUCAUAGUUCCAUUAAAGCCAAAAGUGGCUUUGAUGUUUCUAUGAUAAGGGUUUCGACCCGUGGCGUCGGGGAUCGCCUGCCCAUUGAAAUGGGCUUCUCCCCAUUUAUU
DNA 1: CTTCTATAGCCTCCTTCCCC
DNA 2: GGGGAAGGAGGCTATAGAAG
As for B1, the activity in series [2] worked out at 26.6 % editing.
